Laboratory results from PMC10068764.

Target: CA tri-hexamer_(center) (HIV-1)
Test: ITC

NUP153^1411–1475/1425–1464△ peptide (25 aa) (from UniProt P49790 1411-1475)
Kd: 870 nM
